Measured values as given in the supplement of paper PMC12667976.
± gives the standard error.

B1: library; numbered along this chain (parent)
chain: MATDAALRRLLRLHRTEIAVAVDSAFPLLHALADHDVVPEDKFQETLHLKEKEGCPQAFHALLSWLLTQDSTAILDFWRVLFKDYNLERYGRLQPILDSFPKDVDLSQPRKGRKPPAVPKALVPPPRLPTKRKASEEARAAAPAALTPRGTASPGSQLKAKPPKKPESSAEQQRLPLGNGIQTMSASVQRAVAMSSGDVPGARGAVEGILIQQVFESGGSKKCIQVGGEFYTPSKFEDSGSGKNKARSSSGPKPLVRAKGAQGAAPGGGEARLGQQGSVPAPLALPSDPQLHQKNEDECAVCRDGGELICCDGCPRAFHLACLSPPLREIPSGTWRCSSCLQATVQEVQPRAEEPRPQEPPVETPLPPGLRSAGEEVRGPPGEPLAGMDTTLVYKHLPAPPSAAPLPGLDSSALHPLLCVGPEGQQNLAPGARCGVCGDGTDVLRCTHCAAAFHWRCHFPAGTSRPGTGLRCRSCSGDVTPAPVEGVLAPSPARLAPGPAKDDTASHEPALHRDDLESLLSEHTFDGILQWAIQSMARPAAPFPS

Variants of: B1
Test: AIRE transcriptional activation functional score (insulin promoter-GFP; nonsense median 0, synonymous median 1) (normalised score); higher = higher AIRE activity (more reporter activation)
Settings: with insulin promoter-GFP reporter in HEK293
Procedure, shortened: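 The functional score compares variant enrichment between select and non-select populations after subtracting wild type. To obtain it, codon-optimized AIRE NNN-codon libraries spanning three regions were placed by Bxb1 recombinase into Flp-In T-REx HEK293 landing-pad cells with an insulin core promoter-GFP reporter. Cells with the top 10% GFP and unselected integrants were tile-sequenced after mCherry+, BFP− integrants had been sorted at day 7 and grown 7 more days. Only variants with 10 counts per million in non-select were kept, rescaled to nonsense median 0 and synonymous median 1, and averaged across biological replicates.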

AIRE transcriptional activation functional score of substitutions, site by site:
P405: Q 0.685 ± 0.17; H 1.04 ± 0.12; L 0.801 ± 0.35; V 1.21 ± 0.08; F 1.03 ± 0.048; S 1.05 ± 0.31; Y 1.17 ± 0.34; R 0.984 ± 0.21; G 0.341 ± 0.094; T 1.16 ± 0.16; K 1 ± 0.19; N 1.22 ± 0.071; E 0.742 ± 0.073; C 1.59 ± 0.17; I 1.59 ± 0.059
S412: A 1.09 ± 0.11; C 0.988 ± 0.22; G 1.03 ± 0.3; V 1.13 ± 0.17; M 1.3 ± 0.067; Q 0.66 ± 0.076; T 1.02 ± 0.18; R 1.07 ± 0.29; F 1.37 ± 0.16; N 0.717 ± 0.1; L 1.15 ± 0.28; K 0.899 ± 0.084; W 1.72 ± 0.022; H 1.26 ± 0.24; D 0.652 ± 0.19; E 0.743 ± 0.087; Y 1.5 ± 0.088; I 0.868 ± 0.15; P 0.711 ± 0.4
A399: K 0.799 ± 0.062; M 1.22 ± 0.046; Y -0.0769 ± 0.047; N 0.798 ± 0.13; E 0.88 ± 0.39; W 1.2 ± 0.14; L -0.706 ± 0.96; R 0.779 ± 0.2; Q 0.327 ± 0.12; G 0.994 ± 0.14; F 1.64 ± 0.071; S 0.793 ± 0.36; C 1.18 ± 0.21; T 0.845 ± 0.26; P 1.38 ± 0.31; H 1.63 ± 0.058; V 0.911 ± 0.24; I 0.768 ± 0.06
P398: A 1.09 ± 0.16; Y 1.69 ± 0.068; D 0.585 ± 0.029; L 1.5 ± 0.24; S 0.979 ± 0.31; R 0.958 ± 0.22; K 1.04 ± 0.097; V 1.31 ± 0.1; T 1.21 ± 0.21; E 0.984 ± 0.074; G 1.14 ± 0.24; I 1.23 ± 0.12; W 1.64 ± 0.049; N 0.615 ± 0.095; F 1.43 ± 0.31; H 1.24 ± 0.26; M 0.82 ± 0.099; C 0.359 ± 0.058; Q 1.31 ± 0.16
H415: E 1.32 ± 0.05; F 1.67 ± 0.23; A 1.08 ± 0.2; K 0.65 ± 0.6; L 1.22 ± 0.48; I 0.632 ± 0.12; D 0.797 ± 0.08; G 0.474 ± 0.39; C 0.616 ± 0.035
L414: Y -0.109 ± 0.22; I 1.45 ± 0.096; T 1.14 ± 0.16; W 0.979 ± 0.16; F 1.41 ± 0.075; K 0.634 ± 0.11; D 1.03 ± 0.042; G 0.546 ± 0.18; E 1.08 ± 0.12; R 0.749 ± 0.26; V 1.1 ± 0.41; H 0.857 ± 0.045; S 0.625 ± 0.42; C 0.792 ± 0.16; P 0.785 ± 0.23; N 1.07 ± 0.054; A 1.49 ± 0.098
L409: G 0.891 ± 0.22; H 0.62 ± 0.44; Y 0.962 ± 0.075; F 0.907 ± 0.093; N 0.459 ± 0.12; I 1.16 ± 0.21; T 1.02 ± 0.11; P 1.25 ± 0.17; A 0.384 ± 0.081; S 1.23 ± 0.38; C 0.887 ± 0.15; E 0.899 ± 0.095; K 0.881 ± 0.045; Q 0.636 ± 0.19; M 1.03 ± 0.035; R 0.789 ± 0.21; D 1.21 ± 0.16; V 0.903 ± 0.31
S402: H 1.48 ± 0.23; N 1.13 ± 0.11; A 1.05 ± 0.24; L 0.984 ± 0.3; K 0.894 ± 0.2; P 1.07 ± 0.09; C 1.1 ± 0.12; I 0.78 ± 0.15; T 0.974 ± 0.18; G 1.34 ± 0.22; W 1.22 ± 0.079; Y 1.17 ± 0.2; V 0.921 ± 0.23; F 0.518 ± 0.41; Q 0.546 ± 0.66; M 0.776 ± 0.079; D 0.871 ± 0.19; E 0.833 ± 0.11; R 1.02 ± 0.21
A413: W 1.15 ± 0.072; E 0.842 ± 0.12; H 0.905 ± 0.19; Y 1.25 ± 0.14; L 1.43 ± 0.2; R 0.964 ± 0.14; N 0.373 ± 0.085; Q 1.01 ± 0.047; M 1.02 ± 0.11; C 1.42 ± 0.077; I 1.34 ± 0.27; T 1.17 ± 0.17; P 0.731 ± 0.39; K 0.606 ± 0.33; G 1.12 ± 0.37; V 0.931 ± 0.37; S 0.965 ± 0.2; D 0.666 ± 0.15; F 0.975 ± 0.14
S411: L 1.24 ± 0.24; C 1.45 ± 0.089; A 1.04 ± 0.13; Q 0.0682 ± 0.27; E 0.407 ± 0.085; P 1.08 ± 0.49; V 1.06 ± 0.29; W 1.31 ± 0.045; Y 1.06 ± 0.14; R 0.871 ± 0.23; F 1.46 ± 0.16; I 1.3 ± 0.15; G 0.952 ± 0.18; T 0.867 ± 0.29
